Test results: the supplement of paper PMC7877785
± gives the uncertainty stated by the source.

Test: self-splicing fitness, log relative to wild type (ln ratio); higher = more splicing; Tetrahymena group I intron in knt gene, E. coli kanamycin selection, DiMSum; sequences stand for … in CUCUCU…GGAGGGAAAAGUUAUCAGGCAUGCACCUGGUAGCUAGUCUUUAAACCAAUAGAUUGCAUCGGUUUAAAAGGCAAGACCGUCAAAUUGCGGGAAAGGGGUCAACAGCCGUUCAGUACCAAGUCUCAGGGGAAACUUUGAGAUGGCCUUGCAAAGGGUAUGGUAAUAAGCUGACGGACAUGGUCCUAACCACGCAGCCAAGUCCUAAGUCAACAGAUCUUCUGUUGAUAUGGAUGCAGUUCACAGACUAAAUGUCGGUCGGGGAAGAUGUAUUCUUCUCAUAAGAUAUAGUCGGACCUCUCCUUAAUGGGAGCUAGCGGAUGAAGUGAUGCAACACUGGAGCCGCUGGGAACUAAUUUGUAUGCGAAAGUAUAUUGAUUAGUUUUGGAGUACUCGUGGUCG
How it was run: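 A randomised library covering all eight P1ex-region intron nucleotides was built with the intron in the knt kanamycin-resistance gene on pET-22b(+) and held in E. coli BL21(DE3). Cells were grown overnight at 37°C or 30°C on LB agar, with or without 25 μg/mL kanamycin, plus 100 μg/mL carbenicillin, 50 μM IPTG and 0.2% rhamnose, and pooled colonies were amplicon-sequenced on an Illumina HiSeq 2500. DiMSum fitness is the error-weighted combination of wild-type-normalised replicate fold changes, kanamycin versus none.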

Row | Sequence | self-splicing fitness (ln) (30 °C) | self-splicing fitness (ln) (37 °C)
1 | UGACAGCAAUAUUACGAAAC | -3.96 ± 0.24 | -1.96 ± 0.26
2 | UGACAGCAAUAUUACGAUAA | -0.561 ± 0.052 | 0.4 ± 0.072
3 | UGACAGCAAUAUUACGAUAU | -2.67 ± 0.16 | -1.9 ± 0.14
4 | UGACAGCAAUAUUACGAUUU | -0.733 ± 0.094 | -0.108 ± 0.1
5 | UGACAGCAAUAUUACGCACA | 0.341 ± 0.092 | 0.528 ± 0.12
6 | UGACAGCAAUAUUACGCACC | -1.38 ± 0.12 | -0.767 ± 0.17
7 | UGACAGCAAUAUUACGCCUA | 0.107 ± 0.069 | 0.414 ± 0.086
8 | UGACAGCAAUAUUACGCGAC | -1.82 ± 0.14 | -1.86 ± 0.19
9 | UGACAGCAAUAUUACGCUAC | -2.24 ± 0.43 | -1.56 ± 0.26
10 | UGACAGCAAUAUUACGCUGU | -4.01 ± 0.24 | -3.42 ± 0.27
11 | UGACAGCAAUAUUACGCUUC | -3.56 ± 0.25 | -2.29 ± 0.23
12 | UGACAGCAAUAUUACGGACG | 0.0374 ± 0.078 | 0.415 ± 0.11
13 | UGACAGCAAUAUUACGGAUU | -2.54 ± 0.094 | -2.29 ± 0.13
14 | UGACAGCAAUAUUACGGCAA | -1.41 ± 0.14 | -0.13 ± 0.17
15 | UGACAGCAAUAUUACGUCAC | -3.74 ± 0.17 | -3.16 ± 0.23
16 | UGACAGCAAUAUUACGUCGA | -0.222 ± 0.092 | -0.143 ± 0.098
17 | UGACAGCAAUAUUACGUGGU | -3.23 ± 0.15 | -2.22 ± 0.12
18 | UGACAGCAAUAUUACGUGUG | -0.953 ± 0.06 | -0.807 ± 0.069
19 | UGACAGCAAUAUUACGUGUU | -4.32 ± 0.19 | -2.22 ± 0.19
20 | UGACAGCAAUAUUACGUUAA | -0.645 ± 0.1 | -1.16 ± 0.09

Row | Sequence | self-splicing fitness (ln) (30 °C) | self-splicing fitness (ln) (37 °C)
21 | UGACAGCAAUAUUACGUUAG | -1.01 ± 0.066 | -0.987 ± 0.089
22 | UGACAGCAAUAUUACGUUAU | -3.65 ± 0.19 | -3.04 ± 0.21
23 | UGACAGCAAUAUUACGUUUC | -1.65 ± 0.29 | -1.5 ± 0.33
24 | UGAGAGCAAUAUUACGAAUG | -2.97 ± 0.36 | -1.09 ± 0.46
25 | UGAGAGCAAUAUUACGAAUU | -3.84 ± 0.16 | -2.79 ± 0.17
26 | UGAGAGCAAUAUUACGACAU | -3.847 ± 0.037 | -2.82 ± 0.048
27 | UGAGAGCAAUAUUACGAGCC | -1.9 ± 0.33 | 
28 | UGAGAGCAAUAUUACGAGCU |  | -2.53 ± 0.49
29 | UGAGAGCAAUAUUACGAUAG | -3.19 ± 0.38 | -2.11 ± 0.26
30 | UGAGAGCAAUAUUACGAUGG | -3.59 ± 0.23 | -2.72 ± 0.2
31 | UGAGAGCAAUAUUACGAUUG | -2.57 ± 0.27 | -1.14 ± 0.27
32 | UGAGAGCAAUAUUACGCUGG | -3.87 ± 0.22 | -2.67 ± 0.25
33 | UGAGAGCAAUAUUACGGAAG | -3.67 ± 0.23 | -2.2 ± 0.31
34 | UGAGAGCAAUAUUACGGUUA | -1.14 ± 0.23 | -1.11 ± 0.21
35 | UGAGAGCAAUAUUACGGUUU | -2.16 ± 0.4 | 
36 | UGAGAGCAAUAUUACGUAGG | -2.48 ± 0.35 | -1.12 ± 0.41
37 | UGAGAGCAAUAUUACGUCUG | -2.76 ± 0.42 | -1.88 ± 0.33
38 | UGAGAGCAAUAUUACGUGCC |  | -2.99 ± 0.43
39 | UGAGAGCAAUAUUACGUGGA | -3.18 ± 0.28 | -2.95 ± 0.47
